Test results from patent US5858678.

Assays:
[1] = target: 19K mutant 123-4 (substitutions for residues 123-124) bait (GAL4(1-147)-19 kD fusion) (yeast; adenovirus) (UniProt P04386); assay: yeast two-hybrid, ONPG beta-galactosidase assay
[2] = target: 19K mutant 14-5 bait (GAL4(1-147)-19 kD fusion) (yeast; adenovirus) (UniProt P04386); assay: yeast two-hybrid, ONPG beta-galactosidase assay
[3] = target: 19K mutant 146-E bait (GAL4(1-147)-19 kD fusion) (yeast; adenovirus) (UniProt P04386); assay: yeast two-hybrid, ONPG beta-galactosidase assay
[4] = target: 19K mutant 29-0 bait (GAL4(1-147)-19 kD fusion) (yeast; adenovirus) (UniProt P04386); assay: yeast two-hybrid, ONPG beta-galactosidase assay
[5] = target: 19K mutant 50-1 (amino acids 50-51) bait (GAL4(1-147)-19 kD fusion) (yeast; adenovirus) (UniProt P04386); assay: yeast two-hybrid, ONPG beta-galactosidase assay
[6] = target: 19K mutant 75-6 (substitution for residues 75-76) bait (GAL4(1-147)-19 kD fusion) (yeast; adenovirus) (UniProt P04386); assay: yeast two-hybrid, ONPG beta-galactosidase assay
[7] = target: 19K mutant 90-6 (amino acids 90-96) bait (GAL4(1-147)-19 kD fusion) (yeast; adenovirus) (UniProt P04386); assay: yeast two-hybrid, ONPG beta-galactosidase assay
[8] = target: Bcl-2 deletion mutant #106-5 (lacks residues 106 to 115) bait in pMA424 (yeast; human); assay: yeast two-hybrid, ONPG beta-galactosidase assay
[9] = target: Bcl-2 deletion mutant #42-8 (lacks residues 42 to 48) bait in pMA424 (yeast; human); assay: yeast two-hybrid, ONPG beta-galactosidase assay
[10] = target: Bcl-2 deletion mutant #80-6 (lacks residues 80 to 86) bait in pMA424 (yeast; human); assay: yeast two-hybrid, ONPG beta-galactosidase assay
[11] = target: GAL4(1-147)-19K fusion protein (adenovirus E1B 19 kD protein bait, wild type) (yeast; adenovirus) (UniProt P04386); assay: yeast two-hybrid, ONPG beta-galactosidase assay
[12] = target: human Bcl-2 bait (pMA424-based GAL4 DNA-binding domain fusion, residues 1-239 of Bcl2), wild type (yeast; human); assay: yeast two-hybrid, ONPG beta-galactosidase assay
[13] = target: GAL4(1-147)-19K fusion protein (adenovirus E1B 19 kD protein bait, wild type) (yeast; adenovirus) (UniProt P04386); assay: yeast two-hybrid, ONPG beta-galactosidase assay, relative to the 19K bait
[14] = target: human Bcl-2 bait (pMA424-based GAL4 DNA-binding domain fusion, residues 1-239 of Bcl2), wild type (yeast; human); assay: as above

Nip3 (19K-interacting protein 3), protein coded by cDNA clone 91, tagged with the GAL4 activation domain, sequence (chain): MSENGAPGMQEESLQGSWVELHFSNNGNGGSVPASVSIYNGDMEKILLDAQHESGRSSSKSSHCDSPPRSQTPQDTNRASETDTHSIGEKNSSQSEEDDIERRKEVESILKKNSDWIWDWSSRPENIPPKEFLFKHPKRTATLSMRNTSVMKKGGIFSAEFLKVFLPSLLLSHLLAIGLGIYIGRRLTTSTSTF
Nip1 (19K-interacting protein 1), protein coded by cDNA clone 22, tagged with the GAL4 activation domain, sequence (chain): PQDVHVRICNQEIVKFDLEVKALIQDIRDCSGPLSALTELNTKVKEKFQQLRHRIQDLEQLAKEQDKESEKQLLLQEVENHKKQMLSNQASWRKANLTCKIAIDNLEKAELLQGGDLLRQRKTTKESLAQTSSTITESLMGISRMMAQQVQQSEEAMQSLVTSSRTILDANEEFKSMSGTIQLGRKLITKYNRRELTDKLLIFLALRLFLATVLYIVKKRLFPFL
Nip2 (19K-interacting protein 2), protein coded by cDNA clone 44, tagged with the GAL4 activation domain, sequence (chain): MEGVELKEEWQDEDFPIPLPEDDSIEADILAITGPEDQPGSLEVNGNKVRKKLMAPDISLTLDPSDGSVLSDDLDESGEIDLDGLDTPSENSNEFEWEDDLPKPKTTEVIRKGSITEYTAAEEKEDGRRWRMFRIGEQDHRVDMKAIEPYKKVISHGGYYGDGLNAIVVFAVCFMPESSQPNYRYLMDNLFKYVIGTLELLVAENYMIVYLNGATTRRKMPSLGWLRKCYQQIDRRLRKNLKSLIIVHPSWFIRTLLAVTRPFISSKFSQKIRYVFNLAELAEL

## Nip1 (19K-interacting protein 1), protein coded by cDNA clone 22, tagged with the GAL4 activation domain
[1]
  relative level of lacZ expression (ONPG) (relative level): 0.05
[2]
  relative level of lacZ expression (ONPG) (relative level): 0.61
[3]
  relative level of lacZ expression (ONPG) (relative level): 0.87
[4]
  relative level of lacZ expression (ONPG) (relative level): 0.33
[5]
  relative level of lacZ expression (ONPG) (relative level): < 0.01
[6]
  relative level of lacZ expression (ONPG) (relative level): 1.72
[7]
  relative level of lacZ expression (ONPG) (relative level): < 0.01
[8]
  relative level of lacZ expression (ONPG) (relative level): 0.01
[9]
  relative level of lacZ expression (ONPG) (relative level): 0.16
[10]
  relative level of lacZ expression (ONPG) (relative level): 1.21
[11]
  relative level of lacZ expression (ONPG) (relative level): 1
[12]
  relative level of lacZ expression (ONPG) (relative level): 1
[13]
  relative level of lacZ expression (ONPG) (relative level): 1
[14]
  relative level of lacZ expression (ONPG) (relative level): 1.8

## Nip2 (19K-interacting protein 2), protein coded by cDNA clone 44, tagged with the GAL4 activation domain
[1]
  relative level of lacZ expression (ONPG) (relative level): 0.24
[2]
  relative level of lacZ expression (ONPG) (relative level): 0.55
[3]
  relative level of lacZ expression (ONPG) (relative level): 0.98
[4]
  relative level of lacZ expression (ONPG) (relative level): 0.32
[5]
  relative level of lacZ expression (ONPG) (relative level): 0.09
[6]
  relative level of lacZ expression (ONPG) (relative level): 1.6
[7]
  relative level of lacZ expression (ONPG) (relative level): 0.04
[8]
  relative level of lacZ expression (ONPG) (relative level): 0.06
[9]
  relative level of lacZ expression (ONPG) (relative level): 0.09
[10]
  relative level of lacZ expression (ONPG) (relative level): 0.8
[11]
  relative level of lacZ expression (ONPG) (relative level): 1
[12]
  relative level of lacZ expression (ONPG) (relative level): 1
[13]
  relative level of lacZ expression (ONPG) (relative level): 1
[14]
  relative level of lacZ expression (ONPG) (relative level): 0.7

## Nip3 (19K-interacting protein 3), protein coded by cDNA clone 91, tagged with the GAL4 activation domain
[1]
  relative level of lacZ expression (ONPG) (relative level): 0.1
[2]
  relative level of lacZ expression (ONPG) (relative level): 0.16
[3]
  relative level of lacZ expression (ONPG) (relative level): 0.28
[4]
  relative level of lacZ expression (ONPG) (relative level): 0.19
[5]
  relative level of lacZ expression (ONPG) (relative level): 0.01
[6]
  relative level of lacZ expression (ONPG) (relative level): 0.22
[7]
  relative level of lacZ expression (ONPG) (relative level): 0.01
[8]
  relative level of lacZ expression (ONPG) (relative level): 0.11
[9]
  relative level of lacZ expression (ONPG) (relative level): 0.19
[10]
  relative level of lacZ expression (ONPG) (relative level): 2.87
[11]
  relative level of lacZ expression (ONPG) (relative level): 1
[12]
  relative level of lacZ expression (ONPG) (relative level): 1
[13]
  relative level of lacZ expression (ONPG) (relative level): 1
[14]
  relative level of lacZ expression (ONPG) (relative level): 1.5
